Laboratory results: publication PMC7364481, “Identification and validation of the phosphorylation sites on Aristaless-related homeobox protein”

Tests used:
Assay in all cases: EMSA; 5 ug protein per lane; LightShift chemiluminescent EMSA kit, 6% polyacrylamide gel, 5 ug protein per lane; binding buffer, salt, pH and temperature not stated (protein eluted in 50 mM Tris-Cl pH 8.0, 30 mM glutathione)
Conditions in all cases: protein: recombinant; tags: N-terminal GST (pGEX-4T-2); label: biotin; blunt
[1] = molecular target: GST-ARX(220-392) S266A (UniProt O35085 220-392, S266A)
Chain of GST-ARX(220-392) S266A (O35085 220-392 S266A): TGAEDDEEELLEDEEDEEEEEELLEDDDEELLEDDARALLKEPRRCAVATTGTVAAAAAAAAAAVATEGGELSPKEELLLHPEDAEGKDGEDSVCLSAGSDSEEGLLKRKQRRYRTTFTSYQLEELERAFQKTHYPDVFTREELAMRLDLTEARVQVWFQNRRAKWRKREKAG

[2] = molecular target: GST-ARX(220-392) S266E (UniProt O35085 220-392, S266E)
Chain of GST-ARX(220-392) S266E (O35085 220-392 S266E): as the sequence (O35085 220-392 S266A) above, with A47E counted along it

[3] = molecular target: GST-ARX(220-392) WT (UniProt O35085 220-392)
Chain of GST-ARX(220-392) WT (O35085 220-392): as the sequence (O35085 220-392 S266A) above, with A47S counted along it

Measured: binding result

B1: SIX1 probe (dsDNA)
DNA 1: TCTTAACATTAAGGTAATTAAATATGAGCTCAC
DNA 2: GTGAGCTCATATTTAATTACCTTAATGTTAAGA
binds: [1] | [2] | [3]
